Our source for the pKd values is publication PMC9482650, “Quantitative fragmentomics allow affinity mapping of interactomes” (Nature Communications, 2022).

Among the targets are SCRIB_3, Q14160; Inadl_3, Q8NI35; FRMPD2_1, Q68DX3; LIMK2, P53671; Inadl_8, Q8NI35; DLG1_1, Q12959; GRIP2_4, Q9C0E4; MAGI2_4, Q86UL8; IL16_3, Q14005; NHERF4_1, Q86UT5-2; MAGI1_1, Q96QZ7; DLG5_1, Q8TDM6.
Holding throughout (experiment): holdup assay
Holding throughout (set-up): key: below the threshold = too weak to quantify, mostly under pKd 3.1 to 4

Another assay deals with T1, DFNB31_1, Q9P202.
T1 sequence (Q9P202 135-233, limits assumed, looked up): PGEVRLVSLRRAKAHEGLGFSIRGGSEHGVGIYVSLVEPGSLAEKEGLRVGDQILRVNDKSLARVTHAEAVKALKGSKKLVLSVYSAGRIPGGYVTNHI

The target in another assay is T2, SNTG2, Q9NY99.
T2 sequence (Q9NY99 68-166, limits assumed, looked up): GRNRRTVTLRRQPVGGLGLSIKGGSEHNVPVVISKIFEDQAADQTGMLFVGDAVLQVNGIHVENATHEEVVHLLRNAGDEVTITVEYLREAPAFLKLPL

The target in another assay is T3, TX1BP3, O14907.
T3 sequence (O14907 10-122, limits assumed, looked up): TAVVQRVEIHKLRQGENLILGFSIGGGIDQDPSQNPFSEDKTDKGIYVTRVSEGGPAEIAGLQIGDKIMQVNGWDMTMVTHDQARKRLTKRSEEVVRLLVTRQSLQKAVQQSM

For another assay, the target named is T4, MPDZ_12, O75970.
T4 sequence (O75970 1857-1958, limits assumed, looked up): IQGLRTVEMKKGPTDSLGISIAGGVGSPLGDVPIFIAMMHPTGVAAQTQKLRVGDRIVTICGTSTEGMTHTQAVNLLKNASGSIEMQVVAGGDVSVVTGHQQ

A further assay addresses T5, RADIL, Q96JH8.
T5 sequence (Q96JH8 971-1071, limits assumed, looked up): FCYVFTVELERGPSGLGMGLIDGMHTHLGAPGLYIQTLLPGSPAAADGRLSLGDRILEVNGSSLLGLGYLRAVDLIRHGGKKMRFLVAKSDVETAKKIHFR

A further assay addresses T6, CARD11, Q9BXL7.
T6 sequence (Q9BXL7 662-765, limits assumed, looked up): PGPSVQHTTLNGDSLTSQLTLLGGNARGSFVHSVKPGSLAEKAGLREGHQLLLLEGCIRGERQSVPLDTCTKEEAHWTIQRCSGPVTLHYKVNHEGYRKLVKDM

The target in the next assay is T7, PDZD2_2, O15018.
T7 sequence (O15018 329-429, limits assumed, looked up): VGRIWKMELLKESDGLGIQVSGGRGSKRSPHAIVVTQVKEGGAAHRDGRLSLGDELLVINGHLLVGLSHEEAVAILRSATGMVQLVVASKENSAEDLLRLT

For the next assay, the target named is T8, DLG3_1, Q92796.
T8 sequence (Q92796 125-227, limits assumed, looked up): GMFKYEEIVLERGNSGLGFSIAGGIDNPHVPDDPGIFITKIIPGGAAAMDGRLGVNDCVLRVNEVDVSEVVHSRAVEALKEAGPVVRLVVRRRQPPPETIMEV

For another assay, the target named is T9, DFNB31_2, Q9P202.
T9 sequence (Q9P202 274-371, limits assumed, looked up): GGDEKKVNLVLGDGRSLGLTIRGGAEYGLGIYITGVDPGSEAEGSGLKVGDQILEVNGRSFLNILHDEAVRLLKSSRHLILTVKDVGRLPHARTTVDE

The next assay addresses T10, MPDZ_10, O75970.
T10 sequence (O75970 1624-1722, limits assumed, looked up): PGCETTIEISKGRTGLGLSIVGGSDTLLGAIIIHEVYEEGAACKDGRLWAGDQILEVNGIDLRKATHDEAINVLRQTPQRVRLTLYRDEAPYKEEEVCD

The target in another assay is T11, LNX2_2, Q8N448.
T11 sequence (Q8N448 334-432, limits assumed, looked up): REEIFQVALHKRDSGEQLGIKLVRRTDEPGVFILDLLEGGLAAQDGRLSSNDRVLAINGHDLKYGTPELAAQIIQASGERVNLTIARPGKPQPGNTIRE

The next assay deals with T12, GRIP1_4, Q9Y3R0.
T12 sequence (Q9Y3R0 467-571, limits assumed, looked up): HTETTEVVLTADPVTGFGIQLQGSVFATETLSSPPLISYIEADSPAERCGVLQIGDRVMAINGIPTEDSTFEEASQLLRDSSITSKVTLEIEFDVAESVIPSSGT

[1] abbreviates: plain residues with an end cap or a label only (N-terminal biotin on a linker: ahx).
Setting [2] is: plain residues with an end cap or a label only (N-terminal biotin on a linker: ttds).
Where [3] appears, read: plain residues with an end cap or a label only (N-terminal biotin on a linker: ado-ado).

Sequence of GRIP2_4, Q9C0E4 (Q9C0E4 446-548): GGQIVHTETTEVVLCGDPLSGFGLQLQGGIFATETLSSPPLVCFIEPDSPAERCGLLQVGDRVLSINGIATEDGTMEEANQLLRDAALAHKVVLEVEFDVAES
Sequence of Inadl_3, Q8NI35 (Q8NI35 359-469): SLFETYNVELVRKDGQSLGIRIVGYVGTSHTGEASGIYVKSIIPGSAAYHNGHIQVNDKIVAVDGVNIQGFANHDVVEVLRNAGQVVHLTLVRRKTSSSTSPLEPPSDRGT
Sequence of Inadl_8, Q8NI35 (Q8NI35 1425-1530): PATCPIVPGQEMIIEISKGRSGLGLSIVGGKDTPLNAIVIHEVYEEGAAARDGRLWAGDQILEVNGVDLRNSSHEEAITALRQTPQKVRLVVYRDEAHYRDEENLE
Sequence of NHERF4_1, Q86UT5-2 (Q86UT5 other isoform, or with tags, fused parts or gaps): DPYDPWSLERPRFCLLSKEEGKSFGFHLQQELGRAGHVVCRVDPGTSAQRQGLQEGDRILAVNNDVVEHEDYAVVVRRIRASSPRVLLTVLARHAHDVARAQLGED
Sequence of IL16_3, Q14005 (Q14005 1107-1207): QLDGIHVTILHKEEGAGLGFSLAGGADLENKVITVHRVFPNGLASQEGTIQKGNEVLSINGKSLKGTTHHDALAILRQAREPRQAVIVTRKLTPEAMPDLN
Sequence of SCRIB_3, Q14160 (Q14160 999-1103): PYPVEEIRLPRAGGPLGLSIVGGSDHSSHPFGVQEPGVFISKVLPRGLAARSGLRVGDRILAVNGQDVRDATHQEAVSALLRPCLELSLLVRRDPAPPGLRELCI
Sequence of DLG5_1, Q8TDM6 (Q8TDM6 617-713): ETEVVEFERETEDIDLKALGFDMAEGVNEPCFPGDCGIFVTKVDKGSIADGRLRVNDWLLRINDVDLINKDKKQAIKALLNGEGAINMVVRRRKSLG
Sequence of MAGI2_4, Q86UL8 (Q86UL8 772-865): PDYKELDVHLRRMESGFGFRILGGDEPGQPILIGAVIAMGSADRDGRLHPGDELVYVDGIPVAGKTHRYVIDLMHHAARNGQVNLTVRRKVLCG
Sequence of FRMPD2_1, Q68DX3 (Q68DX3 770-861): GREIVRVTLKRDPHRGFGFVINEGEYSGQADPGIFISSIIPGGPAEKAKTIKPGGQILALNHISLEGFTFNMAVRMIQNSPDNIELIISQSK
Sequence of MAGI1_1, Q96QZ7 (Q96QZ7 1-106): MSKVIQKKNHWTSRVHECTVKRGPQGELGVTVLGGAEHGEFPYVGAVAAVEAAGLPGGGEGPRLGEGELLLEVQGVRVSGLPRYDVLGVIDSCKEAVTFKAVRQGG
Sequence of LIMK2, P53671 (P53671 143-248): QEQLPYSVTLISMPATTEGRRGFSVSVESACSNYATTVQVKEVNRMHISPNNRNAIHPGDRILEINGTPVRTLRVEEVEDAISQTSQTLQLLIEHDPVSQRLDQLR

In general, pKd refers to −log10 of the Kd, conventionally taken in molar units. With ADENEQVSAV [RAPGEF6, Q8TEU7], the pKd entry was “below the threshold” with SCRIB_3, Q14160 (setting [1]); “below the threshold” with DFNB31_1, Q9P202 (setting [1]); 3.63 with Inadl_3, Q8NI35 (setting [1]); “below the threshold” with SNTG2, Q9NY99 (setting [1]); “below the threshold” with TX1BP3, O14907 (setting [1]); “below the threshold” in the assay with FRMPD2_1, Q68DX3 (setting [1]). Also, the pKd result is “below the threshold” with MPDZ_12, O75970 (setting [1]); “below the threshold” in the assay with RADIL, Q96JH8 (setting [1]); “below the threshold” in the assay with LIMK2, P53671 (setting [1]); “below the threshold” with CARD11, Q9BXL7 (setting [1]); 3.86 in the assay with Inadl_8, Q8NI35 (setting [1]); “below the threshold” in the assay with DLG1_1, Q12959 (setting [1]). In addition, the pKd with PDZD2_2, O15018 (setting [1]) is 5.5; with DLG3_1, Q92796 (setting [1]), “below the threshold”; in the assay with DFNB31_2, Q9P202 (setting [1]), “below the threshold”; with GRIP2_4, Q9C0E4 (setting [1]) it was “below the threshold”; with MAGI2_4, Q86UL8 (setting [1]), “below the threshold”; with MPDZ_10, O75970 (setting [1]), “below the threshold”. Also, the pKd entry is given as “below the threshold” with LNX2_2, Q8N448 (setting [1]); “below the threshold” in the assay with IL16_3, Q14005 (setting [1]); “below the threshold” in the assay with NHERF4_1, Q86UT5-2 (setting [1]); “below the threshold” in the assay with MAGI1_1, Q96QZ7 (setting [1]); “below the threshold” with GRIP1_4, Q9Y3R0 (setting [1]); “below the threshold” with DLG5_1, Q8TDM6 (setting [1]).
Take SAPATLSSRA [PDLIM2, Q96JY6]: the negative-log Kd (pKd) result with SCRIB_3, Q14160 (setting [1]) was “below the threshold”; with DFNB31_1, Q9P202 (setting [1]), “below the threshold”; in the assay with Inadl_3, Q8NI35 (setting [1]), 3.48; with SNTG2, Q9NY99 (setting [1]) it was “below the threshold”; with TX1BP3, O14907 (setting [1]), “below the threshold”; with FRMPD2_1, Q68DX3 (setting [1]), “below the threshold”. Besides, the pKd result with MPDZ_12, O75970 (setting [1]) is “below the threshold”; with RADIL, Q96JH8 (setting [1]), “below the threshold”; in the assay with LIMK2, P53671 (setting [1]), “below the threshold”; in the assay with CARD11, Q9BXL7 (setting [1]), “below the threshold”; with Inadl_8, Q8NI35 (setting [1]), “below the threshold”; in the assay with DLG1_1, Q12959 (setting [1]), “below the threshold”. The pKd entry with PDZD2_2, O15018 (setting [1]) is “below the threshold”; with DLG3_1, Q92796 (setting [1]), “below the threshold”; in the assay with DFNB31_2, Q9P202 (setting [1]), “below the threshold”; with GRIP2_4, Q9C0E4 (setting [1]), “below the threshold”; with MAGI2_4, Q86UL8 (setting [1]), “below the threshold”; in the assay with MPDZ_10, O75970 (setting [1]), 4. In addition, the pKd entry in the assay with LNX2_2, Q8N448 (setting [1]) was “below the threshold”; with IL16_3, Q14005 (setting [1]) it was “below the threshold”; with NHERF4_1, Q86UT5-2 (setting [1]), “below the threshold”; with MAGI1_1, Q96QZ7 (setting [1]), “below the threshold”; with GRIP1_4, Q9Y3R0 (setting [1]), “below the threshold”; with DLG5_1, Q8TDM6 (setting [1]), “below the threshold”.
As to SGGKRKETLV [NET1, Q7Z628], the pKd was 4.31 with SCRIB_3, Q14160 (setting [2]); “below the threshold” with DFNB31_1, Q9P202 (setting [2]); “below the threshold” in the assay with Inadl_3, Q8NI35 (setting [2]); 4.17 with SNTG2, Q9NY99 (setting [2]); 4.44 in the assay with TX1BP3, O14907 (setting [2]); 3.95 in the assay with FRMPD2_1, Q68DX3 (setting [2]). The pKd result is “below the threshold” in the assay with MPDZ_12, O75970 (setting [2]); 3.82 with RADIL, Q96JH8 (setting [2]); “below the threshold” with LIMK2, P53671 (setting [2]); “below the threshold” in the assay with CARD11, Q9BXL7 (setting [2]); 3.63 with Inadl_8, Q8NI35 (setting [2]); 5.09 in the assay with DLG1_1, Q12959 (setting [2]). Further, the pKd with PDZD2_2, O15018 (setting [2]) was 4.25; with DLG3_1, Q92796 (setting [2]) it was 4.61; with DFNB31_2, Q9P202 (setting [2]) it was “below the threshold”; with GRIP2_4, Q9C0E4 (setting [2]) it was “below the threshold”; with MAGI2_4, Q86UL8 (setting [2]), 4.75; with MPDZ_10, O75970 (setting [2]) it was “below the threshold”. For the same molecule, the pKd was 4.66 with LNX2_2, Q8N448 (setting [2]); “below the threshold” with IL16_3, Q14005 (setting [2]); “below the threshold” in the assay with NHERF4_1, Q86UT5-2 (setting [2]); “below the threshold” in the assay with MAGI1_1, Q96QZ7 (setting [2]); “below the threshold” with GRIP1_4, Q9Y3R0 (setting [2]); “below the threshold” with DLG5_1, Q8TDM6 (setting [2]).
ELKAEDEVQI [DCHS2, Q6V1P9]: the pKd result with SCRIB_3, Q14160 (setting [3]) is “below the threshold”; in the assay with DFNB31_1, Q9P202 (setting [3]) it was “below the threshold”; with Inadl_3, Q8NI35 (setting [3]), “below the threshold”; with SNTG2, Q9NY99 (setting [3]), “below the threshold”; in the assay with TX1BP3, O14907 (setting [3]) it was “below the threshold”; in the assay with FRMPD2_1, Q68DX3 (setting [3]) it was “below the threshold”. In addition, the pKd entry with MPDZ_12, O75970 (setting [3]) is reported as “below the threshold”; in the assay with RADIL, Q96JH8 (setting [3]), “below the threshold”; with LIMK2, P53671 (setting [3]), “below the threshold”; with CARD11, Q9BXL7 (setting [3]) it was “below the threshold”; with Inadl_8, Q8NI35 (setting [3]), “below the threshold”; in the assay with DLG1_1, Q12959 (setting [3]), “below the threshold”. Moreover, the pKd result with PDZD2_2, O15018 (setting [3]) is “below the threshold”; in the assay with DLG3_1, Q92796 (setting [3]) it was “below the threshold”; in the assay with DFNB31_2, Q9P202 (setting [3]) it was “below the threshold”; with GRIP2_4, Q9C0E4 (setting [3]), “below the threshold”; with MAGI2_4, Q86UL8 (setting [3]) it was “below the threshold”; with MPDZ_10, O75970 (setting [3]), “below the threshold”. For the same molecule, the pKd in the assay with LNX2_2, Q8N448 (setting [3]) is 3.71; with IL16_3, Q14005 (setting [3]), “below the threshold”; in the assay with NHERF4_1, Q86UT5-2 (setting [3]), “below the threshold”; with MAGI1_1, Q96QZ7 (setting [3]), “below the threshold”; with GRIP1_4, Q9Y3R0 (setting [3]) it was “below the threshold”; with DLG5_1, Q8TDM6 (setting [3]) it was “below the threshold”.
